Laboratory results: patent US20200101152A1 (INSERM INSTITUT NATIONAL DE LA SANTE ET DE LA RECHERCHE …, published 2020)

What was measured:
[1] = target: Rhesus macaque (NHP) CD40 ectodomain fused to cohesin (Rhesus macaque, UniProt F6SNI1 21-193); assay: multiplexed bead-based equilibrium competition; NHP CD40 ectodomain beads; competitor mouse 12E12 mAb 10 ng/ml, PE anti-mouse IgG, Bio-Plex 200
[2] = target: T1, human CD40 ectodomain fused to cohesin (human, UniProt P25942 22-193); assay: multiplexed bead-based equilibrium competition; human CD40 ectodomain beads; competitor mouse 12E12 mAb 10 ng/ml, PE anti-mouse IgG, Bio-Plex 200
T1 construct: also called human CD40 coated beads; not shown: cohesin carrier (GenBank CP000568.1 nt 3622666-3623172) and the Nhe I site linker
T1 sequence (P25942 22-193 limits assumed, form in doubt): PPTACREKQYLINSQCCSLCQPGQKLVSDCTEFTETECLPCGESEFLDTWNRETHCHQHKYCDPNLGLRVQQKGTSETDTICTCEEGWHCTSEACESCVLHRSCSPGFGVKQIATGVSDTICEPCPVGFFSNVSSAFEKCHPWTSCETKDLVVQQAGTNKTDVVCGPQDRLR

Sequence of Rhesus macaque (NHP) CD40 ectodomain fused to cohesin (F6SNI1 entry or part of it): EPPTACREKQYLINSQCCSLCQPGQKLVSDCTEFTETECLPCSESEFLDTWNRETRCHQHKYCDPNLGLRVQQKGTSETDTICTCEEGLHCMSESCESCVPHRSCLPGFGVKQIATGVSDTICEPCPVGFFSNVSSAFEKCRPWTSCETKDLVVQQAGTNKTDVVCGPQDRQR

B1: humanized αCD40 (humanized anti-human CD40 12E12 recombinant human IgG4 mAb) (antibody, V domains shown)
VH: EVQLVESGGGLVQPGGSLKLSCATSGFTFSDYYMYWVRQAPGKGLEWVAYINSGGGSTYYPDTVKGRFTISRDNAKNTLYLQMNSLRAEDTAVYYCARRGLPFHAMDYWGQGTLVTVSS
VL: DIQMTQSPSSLSASVGDRVTITCSASQGISNYLNWYQQKPGKAVKLLIYYTSILHSGVPSRFSGSGSGTDYTLTISSLQPEDFATYYCQQFNKLPPTFGGGTKLEIKG
notes: also called hAnti-CD40VH3-LV-hIgG4HC
- IC50 [1]: 0.83 pM
- IC50 [2]: 1 pM
